Test [1] addresses T1, bovine pancreatic trypsin (bovine, UniProt P00760 24-246).
T1 construct: It was dialyzed into the ITC buffer and flowed over the chip in SPR
The test can be described thus: isothermal titration calorimetry, 30 °C. On the procedure: Figure 6: FIG. 6 provides an ITC analysis of the interaction between SAP and bovine pancreatic trypsin. SAP was dissolved in 20 mM cacodylate (pH 7.0), 20 mM NaCl at a final concentration of 2 mM. Trypsin was dialyzed into the same buffer and was used in the calorimeter cell at a concentration of 20 µM. No binding is evident throughout the titration. The temperature was maintained at 30° C. Forty injections of 5 µL each were employed with a 240 second re-equilibrium time between injections.
The ability of SAP, SAP-1, and SAP-2 to bind bovine pancreatic trypsin was measured by isothermal titration calorimetry (ITC). […] Under all experimental conditions, there is no detectable binding.
A general note: In ITC the heat of successive injections is recorded.

For test [2], the target named is T1, bovine pancreatic trypsin. The test can be described thus: ITC, SAP-2 (1.0 mM) injected into trypsin (20 µM), 25 °C (FIG. 8).
For test [3], the target named is T1, bovine pancreatic trypsin. Nature of the test: ITC, SAP-1 injected into trypsin, 303 K.
Test [4] addresses T1, bovine pancreatic trypsin. Nature of the test: ITC, SAP-1 (1 mM) injected into trypsin (20 µM), 293 K. On the procedure:
Figure 7: FIG. 7 provides an ITC analysis of the interaction between SAP-1 and bovine pancreatic trypsin. SAP-1 was dissolved in 20 mM cacadylate (pH 7.0), 20 mM NaCl at a final concentration of 1 mM. Trypsin was dialyzed into the same buffer and was used in the calorimeter cell at a concentration of 20 µM. The temperature was maintained at 20° C. Forty injections of 5 µL each were employed with a 240 second re-equilibrium time between injections.

We go through 3 molecules from patent US6822073 (KIMBERLY CLARK WORLDWIDE, dated 2004).

Bridges are numbered along the chain shown (N, C = ends). Where no end group is shown, it is not given here.

T1 sequence (P00760 24-246): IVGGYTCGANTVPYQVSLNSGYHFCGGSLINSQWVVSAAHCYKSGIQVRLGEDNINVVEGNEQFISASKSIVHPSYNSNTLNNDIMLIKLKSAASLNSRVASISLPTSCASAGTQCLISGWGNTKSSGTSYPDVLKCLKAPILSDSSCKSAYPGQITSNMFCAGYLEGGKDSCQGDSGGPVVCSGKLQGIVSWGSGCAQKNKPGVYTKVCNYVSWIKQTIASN

B1: SAP (Synthetic Antibody Peptide), parental peptide backbone (designed binder)
chain: MCPSQPTYPGDPGPVEDLIRFYDNLQQWLNCVTAAC
modifications: disulfide 2-31
notes: Re-engineered avian pancreatic polypeptide with no insert; It was expressed in E. coli from pSAPe and purified; also called SAP peptide; SAP molecule
B1: the binding result in test [1] is on record as “no binding”.

B2: SAP-2 (SAP backbone with the library-selected YKLKY insert) (designed binder)
chain: CPSQPTYPGDPYKLKYGPVEDLIRFYDNLQQWLNCVTAAC
notes: It was expressed in E. coli; In SPR it was coupled to the chip through the C-terminal cysteine thiol; also called recombinant SAP-2
B2: in test [2], the Ka worked out at 640000 M⁻¹, the Stoichiometry was 0.995, the ΔH was -31.2 kcal/mol and the ΔS was -16.2 cal mol^-1 K^-1.

B3: SAP-1 (SAP backbone with the PYRIRF insert from Bovine Pancreatic Trypsin Inhibitor) (designed binder)
chain: CPSQPTYPGDPPYRIRFGPVEDLIRFYDNLQQWLNCVTAAC
notes: It was expressed in E. coli; In SPR it was coupled to the chip through the C-terminal cysteine thiol
For the molecule B3, in test [3], the Ka was determined as 2.4e+06 M⁻¹, the Stoichiometry was found to be 0.99, the ΔH is -15.4 kcal/mol and the ΔS is -21.1 cal mol^-1 K^-1. In addition, in test [4], the Ka stood at 1.65e+06 M⁻¹, the Stoichiometry is 0.975, the ΔH is -26.1 kcal/mol and the ΔS is -11.6 cal mol^-1 K^-1.
